Test results reported in publication PMC11220139, “Biophysical and structural studies of fibulin-2” (Scientific Reports, 2024).

Assays:
[1] = target: mouse fibulin-2 construct S427-G545, three anaphylatoxin-like modules (mutant C500L) (mouse) (UniProt P37889); assay: SEC-MALS; 50 µL of ~2 mg/mL SEC purified protein on Superdex 200 Increase 10/300, 20 mM Tris-HCl pH 8, 150 mM NaCl, 0.5 mL/min
[2] = target: the molecule itself; assay: as above

Molecule | stoichiometry N [1] | stoichiometry N [2]
mouse fibulin-2 construct S427-G545, three anaphylatoxin-like modules (mutant C500L) (from UniProt P37889 427-545) (domain or fragment) | 2 | –
mouse fibulin-2 construct S427-G545, three anaphylatoxin-like modules (wild-type) (domain or fragment, UniProt P37889 427-545, looked up, fibulin-2, mouse, residues S427-G545 (three anaphylatoxin-like modules); numbering is according to the full-length protein; Homodimer linked by an inter-molecular disulfide bond via C500; 8 intra-molecular disulfide bonds in each chain; also called MH6M-S427-G545; pAS79 construct; source: E. coli BL21 (DE3) with the CyDisCo plasmid pMJS205 (Erv1p and PDI), purified (nickel IMAC, SEC); not shown: …) STKDLIETCCAAGQQWAIDNDECQEIPENGAQSDICRIAQRQCCISYLKEKSCVAGVMGAKEGETCGAEDNDTCGVSLYKQCCDCCGLGLRVRAEGQSCESNPNLGYPCNHVMLSCCEG | – | 2
